According to US20110091971A1, “Differentiation of Pluripotent Stem Cells” (priority 2008, published 2011):
Where a chain is given by its changes, count along the chain named. Several values for one entry are separate records, joined by “and”; a condition that tells them apart may be missing. Identical values can stand only once.

B1: ACTN1: wild type Activin A mature protein (SwissProt/UniProt: P08476), SEQ ID 2, expressed from applicant's construct (protein)
chain: GLECDGKVNICCKKQFFVSFKDIGWNDWIIAPSGYHANYCEGECPSHIAGTSGSSLSFHSTVINHYRMRGHSPFANLKSCCVPTKLRPMSMLYYDDGQNIIKKDIQNMIVEECGCS
B2: ACTN48: activin A variant peptide, SEQ ID 49 (protein)
chain: B1 chain with I10L, F16N, Y39E, E41S, E43L, L77M, K78G, S79A, V82I
B3: ACTN4: activin A variant peptide, SEQ ID 5 (protein)
chain: B1 chain with I10L, F16L, Y39H, E41S, E43L, A75S, N76D, L77M, K78G, S79A

Key:
[1] = test system: H1 or H9 human embryonic stem cells; experiment: Activin A bioassay: differentiation of human embryonic stem cells to definitive endoderm, cell number and SOX17 intensity by high content analysis (96-well, four days); assay type: cell-based;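 as to Cell Number average: Raw total cell count per well from high content imaging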;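 as to Sox 17 Intensity average: total fluorescence of the cell multiplied by cell area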
Outline: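 Read-out was cell count and integrated SOX17 immunofluorescence by high-content imaging, with each well divided by the mean of the 100 ng/ml activin A control. Over the four-day culture, test samples were given in DMEM:F12 with 0.5% FCS plus 20 ng/ml Wnt3a for the first two days and in 2% FCS alone for the last two. Cells were H1 or H9 hESC clusters grown on Matrigel.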

[2] = test system: Human Embryonic Stem Cells (H1 hESC line); experiment: RT-PCR of pancreatic differentiation markers at conclusion of step four of differentiation (Example 12); assay type: cell-based; details: end of step four; relative to commercial activin A or ACTN1
Protocol: Step 4 of the differentiation protocol was carried out over three days. Cells were fed daily by aspirating the medium from each well and replacing with a fresh aliquot (0.5 ml) of DMEM-high glucose supplemented with 1% B27, 100 ng/ml Noggin, 100 ng/ml Netrin-4 (R&D Systems; Cat #), 1 μM DAPT, and 1 μM Alk 5 inhibitor (Axxora; Cat #ALX-270-445). At the conclusion of the fourth step of differentiation, cells from some wells were harvested for analysis by RT-PCR to measure markers of differentiation.
RT-PCR Analysis: RNA samples were purified by binding to a silica-gel membrane (Rneasy Mini Kit, Qiagen, CA) in the presence of an ethanol-containing, high-salt buffer followed by washing to remove contaminants. The RNA was further purified using a TURBO DNA-free kit (Ambion, INC), and high-quality RNA was then eluted in water. Yield and purity were assessed by A260 and A280 readings on a spectrophotometer. […]
Unless otherwise stated, all reagents were purchased from Applied Biosystems. […] For each primer/probe set, a Ct value was determined as the cycle number at which the fluorescence intensity reached a specific value in the middle of the exponential region of amplification. Relative gene expression levels were calculated using the comparative Ct method. […] The normalized amount of target was calculated as 2-ΔCt, assuming amplification to be 100% efficiency. […]

[3] = concentrated supernatant (10x; ACTD3 4x), assay dilution 1:20
[4] = supernatant concentration 1x, assay dilution 1:20
[5] = supernatant concentration 10x, assay dilution 1:20
[6] = supernatant concentration 10x, assay dilution 1:20, assay plates #007, #009, #010
[7] = supernatant concentration 10x, assay dilution 1:40
[8] = supernatant concentration 10x, assay dilution 1:40, control = R&D Sys Activin A 100 ng/ml on same plate
[9] = supernatant concentration 50x, assay dilution 1:20, assay plates #008, #009
[10] = supernatant concentration 50x, assay dilution 1:20, control = R&D Sys Activin A 100 ng/ml on same plate
[11] = supernatant concentration 10x, assay dilution 1:20, control = R&D Sys Activin A 100 ng/ml on same plate

Row | Molecule | Cell Number average [1, 4] | Cell Number average [1, 5] | Cell Number average [1, 6] | Cell Number average [1, 7] | Sox 17 Intensity average [1, 7] | Sox 17 Intensity % of control [1, 8] [%] | Cell Number average [1, 9] | Sox 17 Intensity average [1, 9] | Sox 17 Intensity % of control [1, 10] [%] | expression of downstream pancreatic differentiation markers (RT-PCR) [2] | Sox 17 Intensity % of control [1, 11] [%] | other results
1 | B1 | 4284 and 5466 | 7083 and 9254 | 12543 and 11568 and 15112 | 5924 | 1.10E+08 | 480.5 | 13673 | 2.60E+08 | 470.1 | – | – | activity in the cell-based assay, as judged by cell number and SOX17 intensity increases ([1]; ACTN 1 pUnder construct versus OriGene wildtype construct, CHO-S or HEK293-F supernatants): greater activity; expression/activity of supernatant measured by SOX17 expression levels ([1]; CHOS cells, even after concentrating the supernatant): weak or negligible results; Cell Number average [1, 3]: 12233; Sox 17 Intensity average [1, 3]: 1.15E+08; Sox 17 Intensity % of control ([1]; concentrated supernatant (10x; ACTD3 4x), assay dilution 1:20, control = R&D Sys Activin A 100 ng/ml): 263%; expression/activity of supernatant measured by SOX17 expression levels ([1]; pUnder expression vector and HEK293F cells): significantly improved
2 | B2 | – | – | 6030 | – | – | – | 8941 | 3.93E+07 | 157.8 | comparable expression | 71.1 | Sox 17 Intensity average [1, 6]: 1.77E+07
3 | B3 | 6380 | 8916 | – | 6548 | 2.075E+08 | 112.8 | – | – | – | comparable expression | 129.7 | higher potency of supernatant concentrated 10× relative to corresponding unconcentrated supernatant ([1]; primary screening, SOX17 expression, H1 cells): 2.6 fold; Sox 17 Intensity average [1, 4]: 9.099E+07; Sox 17 Intensity % of control ([1]; supernatant concentration 1x, assay dilution 1:20, control = R&D Sys Activin A 100 ng/ml on same plate): 49.5%; Sox 17 Intensity average [1, 5]: 2.385E+08
